Results as given in the Human Domainome abundance scans (Beltran et al. 2025).
± gives the uncertainty stated by the source.

B1: Cell division cycle and apoptosis regulator protein 1, residues 625 to 674; numbered along this chain, Q8IX12 (parent)
chain: ISTPTHWSKLDPKTMKVNDLRKELESRALSSKGLKSQLIARLTKQLKVEE

Variants of: B1
Test: abundance fitness (aPCA) (normalised: wild type 0, dead -1); higher = more abundant; growth selection in yeast, the domain comes from the species named
Details: Homo sapiens

Variant	abundance fitness
ISTPTHWSKLDPKTMKVNDLRKELESRYLSSKGLKSQLIARLTKQLKVEE [A28Y]	0.181 ± 0.069
ISTPTHWSKLDPKTMKVNDLRKELESRHLSSKGLKSQLIARLTKQLKVEE [A28H]	-0.108 ± 0.076
ISTPTHWSKLDPKTMKVNDLRKELESRQLSSKGLKSQLIARLTKQLKVEE [A28Q]	0.151 ± 0.042
ISTPTHWSKLDPKTMKVNDLRKELESRTLSSKGLKSQLIARLTKQLKVEE [A28T]	0.085 ± 0.037
ISTPTHWSKLDPKTMKVNDLRKELESRRLSSKGLKSQLIARLTKQLKVEE [A28R]	0.151 ± 0.029
ISTPTHWSKLDPKTMKVNDLRKELESRGLSSKGLKSQLIARLTKQLKVEE [A28G]	0.145 ± 0.033
ISTPTHWSKLDPKTMKVNDLRKELESRSLSSKGLKSQLIARLTKQLKVEE [A28S]	0.138 ± 0.031
ISTPTHWSKLDPKTMKVNDLRKELESRLLSSKGLKSQLIARLTKQLKVEE [A28L]	0.04 ± 0.042
ISTPTHWSKLDPKTMKVNDLRKELESRPLSSKGLKSQLIARLTKQLKVEE [A28P]	-0.782 ± 0.064
ISTPTHWSKLDPKTMKVNDLRKELESRWLSSKGLKSQLIARLTKQLKVEE [A28W]	-0.053 ± 0.041
ISTPTHWSKLDPKTMKVNDLRKELESRFLSSKGLKSQLIARLTKQLKVEE [A28F]	0.003 ± 0.052
ISTPTHWSKLDPKTMKVNDLRKELESRMLSSKGLKSQLIARLTKQLKVEE [A28M]	0.072 ± 0.036
ISTPTHWSKLDPKTMKVNDLRKELESRILSSKGLKSQLIARLTKQLKVEE [A28I]	0.074 ± 0.064
ISTPTHWSKLDPKTMKVNDLRKELESRCLSSKGLKSQLIARLTKQLKVEE [A28C]	0.054 ± 0.057
ISTPTHWSKLDPKTMKVNDLRKELESRDLSSKGLKSQLIARLTKQLKVEE [A28D]	0.129 ± 0.064
ISTPTHWSKLDPKTMKVNDLRKELESRVLSSKGLKSQLIARLTKQLKVEE [A28V]	-0.016 ± 0.033
ISTPTHWSKLDPKTMKVNDLRKELESRELSSKGLKSQLIARLTKQLKVEE [A28E]	0.038 ± 0.055
ISTPTHWSKLDPKTMKVNDLRKELESTALSSKGLKSQLIARLTKQLKVEE [R27T]	-0.948 ± 0.14
ISTPTHWSKLDPKTMKVNDLRKELESIALSSKGLKSQLIARLTKQLKVEE [R27I]	-1.1 ± 0.14
ISTPTHWSKLDPKTMKVNDLRKELESGALSSKGLKSQLIARLTKQLKVEE [R27G]	-0.743 ± 0.045
ISTPTHWSKLDPKTMKVNDLRKELESYALSSKGLKSQLIARLTKQLKVEE [R27Y]	-0.995 ± 0.21
ISTPTHWSKLDPKTMKVNDLRKELESKALSSKGLKSQLIARLTKQLKVEE [R27K]	-0.822 ± 0.089
ISTPTHWSKLDPKTMKVNDLRKELESCALSSKGLKSQLIARLTKQLKVEE [R27C]	-0.776 ± 0.083
ISTPTHWSKLDPKTMKVNDLRKELESFALSSKGLKSQLIARLTKQLKVEE [R27F]	-1.02 ± 0.16
ISTPTHWSKLDPKTMKVNDLRKELESPALSSKGLKSQLIARLTKQLKVEE [R27P]	-0.784 ± 0.12
ISTPTHWSKLDPKTMKVNDLRKELESDALSSKGLKSQLIARLTKQLKVEE [R27D]	-0.747 ± 0.06

Variant	abundance fitness
ISTPTHWSKLDPKTMKVNDLRKELESQALSSKGLKSQLIARLTKQLKVEE [R27Q]	-0.845 ± 0.098
ISTPTHWSKLDPKTMKVNDLRKELESLALSSKGLKSQLIARLTKQLKVEE [R27L]	-0.805 ± 0.049
ISTPTHWSKLDPKTMKVNDLRKELESVALSSKGLKSQLIARLTKQLKVEE [R27V]	-0.678 ± 0.055
ISTPTHWSKLDPKTMKVNDLRKELESHALSSKGLKSQLIARLTKQLKVEE [R27H]	-0.765 ± 0.11
ISTPTHWSKLDPKTMKVNDLRKELESNALSSKGLKSQLIARLTKQLKVEE [R27N]	-0.871 ± 0.1
ISTPTHWSKLDPKTMKVNDLRKELESSALSSKGLKSQLIARLTKQLKVEE [R27S]	-0.818 ± 0.043
ISTPTHWSKLDPKTMKVNDLRKELESMALSSKGLKSQLIARLTKQLKVEE [R27M]	-0.591 ± 0.082
ISTPTHWSKLDPKTMKVNDLRKELESAALSSKGLKSQLIARLTKQLKVEE [R27A]	-0.713 ± 0.064
ISTPTHWSKLDPKTMKVNDLRKELEARALSSKGLKSQLIARLTKQLKVEE [S26A]	0.088 ± 0.048
ISTPTHWSKLDPKTMKVNDLRKELEPRALSSKGLKSQLIARLTKQLKVEE [S26P]	-0.61 ± 0.056
ISTPTHWSKLDPKTMKVNDLRKELEHRALSSKGLKSQLIARLTKQLKVEE [S26H]	0.053 ± 0.074
ISTPTHWSKLDPKTMKVNDLRKELEGRALSSKGLKSQLIARLTKQLKVEE [S26G]	0.089 ± 0.035
ISTPTHWSKLDPKTMKVNDLRKELEERALSSKGLKSQLIARLTKQLKVEE [S26E]	0.026 ± 0.039
ISTPTHWSKLDPKTMKVNDLRKELEWRALSSKGLKSQLIARLTKQLKVEE [S26W]	0.047 ± 0.029
ISTPTHWSKLDPKTMKVNDLRKELECRALSSKGLKSQLIARLTKQLKVEE [S26C]	0.08 ± 0.04
ISTPTHWSKLDPKTMKVNDLRKELEMRALSSKGLKSQLIARLTKQLKVEE [S26M]	0.073 ± 0.051
ISTPTHWSKLDPKTMKVNDLRKELEIRALSSKGLKSQLIARLTKQLKVEE [S26I]	-0.012 ± 0.068
ISTPTHWSKLDPKTMKVNDLRKELERRALSSKGLKSQLIARLTKQLKVEE [S26R]	0.118 ± 0.035
ISTPTHWSKLDPKTMKVNDLRKELENRALSSKGLKSQLIARLTKQLKVEE [S26N]	0.025 ± 0.037
ISTPTHWSKLDPKTMKVNDLRKELETRALSSKGLKSQLIARLTKQLKVEE [S26T]	0.106 ± 0.047
ISTPTHWSKLDPKTMKVNDLRKELEDRALSSKGLKSQLIARLTKQLKVEE [S26D]	0.031 ± 0.062
ISTPTHWSKLDPKTMKVNDLRKELEFRALSSKGLKSQLIARLTKQLKVEE [S26F]	0.028 ± 0.06
ISTPTHWSKLDPKTMKVNDLRKELEKRALSSKGLKSQLIARLTKQLKVEE [S26K]	0.197 ± 0.059
ISTPTHWSKLDPKTMKVNDLRKELELRALSSKGLKSQLIARLTKQLKVEE [S26L]	0.118 ± 0.038
ISTPTHWSKLDPKTMKVNDLRKELEQRALSSKGLKSQLIARLTKQLKVEE [S26Q]	0.001 ± 0.061
ISTPTHWSKLDPKTMKVNDLRKELEYRALSSKGLKSQLIARLTKQLKVEE [S26Y]	0.044 ± 0.065
